Experiment: soluble on expression in E. coli; label from the status in PepcDB or PDB records

| Sequence | soluble on expression in E. coli |
| --- | --- |
| GNFGWSSYLTYSLNRNKVVELLRNYEDPYTHELTSLDRIDMGGTSMYKMILTEGGSIGDIYVNTLRTDEHGAIYVHPSDQVVVTQPDEFVKAGNSAPKYNLGWGNTFSYKGLSLGFLFTARVGGVVVSQTQATMDAYGSSKATAIARDNGGAIVNGRPIGAEDYYTKIGGAGAQGGIGSMYTYSATNVRLAELSLGYDIPINKYVDWIKGLNVSFIGKNLFFLYRKAPFDPELTASTGTYFQGIDMFMSPSLRNLGFSVKVNF | not soluble |
| MDRFEIKEEFLLNGQSFKILSGAIHYFRVDPSDWHHSLYNLKALGFNTVETYVPWNLHEPQKGTFHFEGILDLERFLKLAQELGLYAIVRPSPYICAEWEFGGFPAWLLNEPGRMRSNNPTYLKHVAEYYDVLMEKIVPHQLANGGNILMIQIENEYGSFGEEKAYLRAIRDLMIARGVTAPFFTSDGPWRATLRAGSMIEDDILVTGNFGSKAKENFGMMQAFFEEHGKKWPLMCMEFWDGWFNRWKEPIIKRDPQELAESVREALALGSINLYMFHGGTNFGFMNGCSARGTIDLPQITSYDYDAPLDEQGNPTEKYFALQKMLHEEYPALPQAEPLVKESFAQTAIPLTNKVSLFATLETISQPVVSVYPQTMEQLGQNTGYLLYRTSIEKDAAEEKLRVIDGRDRLQLFVNQVHQATQYQTEIGEDIYVTLPQENNQIDILMENMGRVNYGHKLFADTQKKGIRTGVMADLHFMTQWQQYCLPMTSCEQVDYSREWQPDQPSFYQYHVELAEVKDTFIDVSKFGKGIVFVNQTNLGRFWNVGPTLSLYIPKGLLKEGQNEIVIFETEGTYQPEIQLVKEPLYKEMKEGLQ | not soluble |
| MKVCLQCENFFSSADWACPSCGYQPERLNGIEAHASEFAHGGGGFKPEYFSELSRLEAGNFWFRARNELILWALRTYKPNAGAFLEVGCGTGFVLSGIARACPEIALNGSEIFLAGLFHAAKRVPSTHFMQMDARRVPFVEEFDAIGAFDVLEHIEEDETVLAQLHNAIKPSGVLLLTVPQHPRLWSASDDYACHVRRYTRVEIEQKVLTAGFELLRSSSFVTSLLPVMMLSRVLQKRKTKDFDPAGELKINAALNKVFYGLMMLELAGIRLGMNYPVGGSRLVVAKKQSALEHHHHHH | not soluble |
| MGSDKIHHHHHHMVQISETSSELIQLLRIENSAPEVLQILDHADSRYIRDLKVNVSNALVTAHISEKESALLALSIAANQKNNILISGFQKLSAEKGATIEEQNEAISCASLLAGNNVFYRFRHFQQKESYNTMQAKIKMNIMMKPVLGKEFFELISLAVSAVNGCEMCVNAHEHSVREMGATEERVWDAIRLAAVITSLDKVMS | not soluble |
| MKIYLMRHTSVLFNGNEHCYGFTDVDVRDTFEEEAAAACARLKGLDPEAVFTSPLQRAAKLAAFCGYPDAIRDDRLKEMNFGDWEGKPWEEILDTTDIEAFFRRYIDEPVSGGESQREQFERVRDFILEKKAAGYRSILIFCHGGVINCARTLVGQCTLESAFASLPPFGSLTELIL | not soluble |
| MSFAIEIVIKAPMDIVCDYIIEDEKIKEWNTFIIENRYPSNMDKENPRVGDKYITVQKVGKKIFEAEVEILEYDAPHIISLGSEMKQGYSAMTYMLEEDEEGTALTLISEYEPSNFYYKMMYKLTGWISRGLTMEQMERLAECVEAAYHKEDLEHHHHHH | not soluble |
| MGSDKIHHHHHHMNSSQVLDVKRVLAVLEEQVFQSTGRYLTEVEKVLIKGVWDSKDYKEMASDSGYNAYYLQQKVAPPLWSMLSVIIGDGVKVTKISLKSILLKLAKSDYRKEEASRLDNDSFVGNIRIHGELPKIKSFYGRKDEINYFKKQITLFKERCIVFTGVGGIGKTLLASRLVEEITFDSLSSIYECIIWKTINHSLSIDELVIDLNKIFQVDIEASENSFIDSISLLSKQLHLHRCLLVIDGFEKLLLADDFGKRLQYEKFLLKLTEGKHESCIIITSQLPLKEFASVTTKLPIRSFKLEGLDVNAGMQILQEKGLTGQECKRLIENYSGNPSSLEALADRINRFFEGSVKTFFRYQTTMIDPQLETMLHQQFGQIGLLSNLQRQIMIYLAEEMSENSTPIQFSKLIDNLKERVDFKLSVFELITAIEVLEQRSLIEIAGKSNKREASYSLQVSIKKYILVDPLGLVHKIPDTIQTREVTLWATA | not soluble |
| MGSDKIHHHHHHMAHPFLRTIFEVVITLYMLHNLYKVLGDDEMDLEEMSSFFNKRVNEYEEHMMNNVGGANQYYIETAKLIPRGKEINILDLGCGTGLELDEIFKINNTVRVTGIDLAENMLRKIKEKHKDKLDRLTLIVGDYFSCDIGEKVFDAALSVETLHHFNHEQKIKLYKKIVRSLKDNGVYIEADYMAPNQDYEDHCFNENKRIRLELGIKDGFYHYDTPCTVENQIKMLYKSGFKSVEKVFKAENTVILLAKK | not soluble |
| MNIRPLHDKLIVERLEVENKSEGGIVLTSQSVKKSNRGKVVAVGLGRPLKNGDRARMEVKTGDQIIFNDGYGVKTEKVDGKEYLILSESDVLAIVE | soluble |
| MGSDKIHHHHHHMEKTILVHAAACAPAESCGYVVNTSAGERYFPCQNLSAEPTMYFRMAPEDYLRAQAAGDVVALVHSHPDGLPFLSDVDRRLQVQSGLPWWLVCHDRIYTFRCVPFLTGRVFEHGVTDCYTLFRDAYHLAGIEMPDFSRGEDWWKNGENLYLDNLEATGFYRVSGEEAQSGDILICCFGSSVANHAAIYCGNGELLHHIPDQLSKRERYTDKWQRRTHSIWRHRAWHESAFTGIYNDLAAALASV | not soluble |
| GQSGPLPKPSLQALPSSLVPLEKPVTLRCQGPPGVDLYRLEKLSSSRYQDQAVLFIPAMKRSLAGRYRCSYQNGSLWSLPSDQLELVATGVFAKPSLSAQPGPAVSSGGDVTLQCQTRYGFDQFALYKEGDPAPYKNPERWYRASFPIITVTAAHSGTYRCYSFSSRDPYLWSAPSDPLELVVT | soluble |
| MTDQLRLMAVHAHPDDESSKGAATMAKYVSEGVDVLVVTCTGGERGSILNPKLQGDAYIEENIHEVRRKEMDEAREILGVGQEWLGFVDSGLPEGDPLPPLPEGCFALEDVDKAAGELVRKIRSFRPQVITTYDENGGYPHPDHIMTHKITMVAFEGAADTEKYPESEYGTAYQPLKVYYNQGFNRPRTEALHHALLDRGLESPYEDWLKRWSEFERKERTLTTHVPCADFFEIRDKALIAHATQIDPEGGWFRVPMEIQKEVWPTEEYELAKSLVETSLPEDDLFAGIRDNALEHHHHHH | not soluble |
| MSLNKTQAQVSHALKSLARKEEWKHRLQQSEELHDILLKAANRYVAGEKRSDGLAIARKLQAKGYGISLENIGENTKLLAQCREAKMEFDQLIEDVGAIAPGQTVSFDLSHIGLSYQFDTAYGHLIELAEKANEHEVTLMISMEESTKTDQILAVYRQAAELYSNIGITLQAHLFRTPDDLRKLVQLPGKIRIVKGAYQEPSHLAMERSDYLNNRYLELVDHLVSTNHPVSVATHDQKLLEEMERRQFLQSTDVEIEMLYGIQPSQLKLFKEKGYQTRVYLTYGHEWFLYLCHRLAEYPENIYTALIDIINPSLPKVDDMYEGHHHHHH | soluble |
| MPVVIIVEHPRFISSAGPAVKGDTGQIMKYEKTKEFPHTKKFKAICYGAMMHPKRACKLTEQPTMTKQKRKNTFLTAYYRAKEICMIYSHIFINKLPKQKLTFKQFYVKK | not soluble |
| MKLAVITDSTATLPTDLKQDKAIFSLDIPVIIDDETYFEGRNLSIDDFYQKMADSQNLPKTSQPSLSELDNLLGLLSSKGYTHVIGLFLAGGISGFWQNIQFLAEEHPEIEMAFPDSKITSAPLGSMVKNVLDWSRQGMTFQAILNKLQEQIDGTTAFIMVDDLNHLVKGGRLSNGSALLGNLLSIKPILRFDEEGKIVVYEKVRTEKKAMKRLVEILNDLIADGQYNVFIIHSKAQDKADYLKRLLQDSGYQYDIEEVHFGAVIATHLGEGAIAFGVTPRL | not soluble |
| MITPSRYPGIYIAPLSSEPTAAHTFKEQAEKALDHISAGPSGRELLQEISKLASKKDRKVTLKEIEINNQCYTDAVLSRRQLEKYEPEDFNENRRIASRLSRKGTFTKGEGSNAIIGWSPDKASIRLNQNGSPLRLGMDNDDKITTLAHELVHVRHVLSGSSLADDGDRYNPRTGSGKEELRAVGLDKYSYSLTKEPSENSIRAEHGLPLRMKYRPHQ | not soluble |
| MGSDKIHHHHHHMVAKKKILFFMWSFSLGGGAEKILSTIVSNLDPEKYDIDILEMEHFDKGYESVPKHVRILKSLQDYRQTRWLRAFLWRMRIYFPRLTRRLLVKDDYDVEVSFTIMNPPLLFSKRREVKKISWIHGSIEELLKDSSKRESHRSQLDAANTIVGISKKTSNSIKEVYPDYTSKLQTIYNGYDFQTILEKSQEKIDIEIAPQSICTIGRIEENKGSDRVVEVIRLLHQEGKNYHLYFIGAGDMEEELKKRVKEYGIEDYVHFLGYQKNPYQYLSQTKVLLSMSKQEGFPGVYVEALSLGLPFISTDVGGAEELSQEGRFGQIIESNQEAAQAITNYMTSASNFDVDEASQFIQQFTITKQIEQVEKLLEE | not soluble |
| MTGTSNIPTHGKEHKDAPALLPLPAPNPHHTHAAHPGNPSHDRPPSRGKLFIKTHGCQMNEYDSAKMADVLTTTEALELTDNPEEADIILINTCSIREKAQEKVFSQLGRWRALKTSGRDVIIGVGGCVASQEGEAIVKRAPYVDLVFGPQTLHRLPDMIRARREQNRPQVDIRFPEIEKFDHLPTPRAEGPSAFVSIMEGCSKYCSFCVVPYTRGEEVSRPFEDVLTEIAHLATQGVREINLLGQNVNAYRGAMDPGPSNNTNPAPPPYADLGLLIRAIAQFESIGRIRFTTSHPLEFSDSLVEAYRDVPQLANHLHLPVQSGSDRILSAMKRGYTALEFKSKIRKLRAVRPDISISSDFIIGFPGESDTDFQKTMQLIEDIGFDQSFSFIYSRRPGTPASNLEDHTPDEIKRTRLEHLQKHINTYAADISKRMIGTVQTVLVEGPSKKNPNELTGKTENMRPVNFPGHPRLIGQFIDVHITEALSNSLRGRVHTNLEHHHHHH | soluble |
| GAMAEEATFTANFKDTDLKSFIETVGANLNKTIIMGPGVQGAVSIRTMTPLNERQYYQLFLNLLEAQGYAVVPMENDVLKVVKSSAAKVEPLPLVGEGSDNYAGDEMVTKVVPVRNVSVRELAPILRQMIDSAGSGNVVNYDPSNVIMLTGRASVVERLTEVIQRVDHAGNRTEEVIPLDNASASEIARVLESLTKNSGENQPATLKSQIVADERTNSVIVSGDPATRDKMRRLIRRLDSE | soluble |
| MLQGHRTWVFENKPVIISTGVVGGPFEAKGNIPEDFDILHEDLWLGQDSYEKAHKILFEEACSRATEKAELRKDDIQFVLAGDLINQITPTSFACRTLGTPYLGLFGACSTSMEGLALGASIVNAKGAKYLLTGASSHNTAVEKQFRYPTEYGGQKPPTAQWTVTGAGAAILSDTGHGPRVTSATIGRVIDMGLTDPFNMGGAMAPAAVDTIEAHLRERQIDASYYDLIVTGDLGHVGREIAYDLLHKHGTKVTSEQFQDCGIIIYREGQPVIAGASGPGCSATVVYGHLLNRMKRGEFKKILVVATGALLSPLTFQQEETIPCIAHAVSIEFGGATQLEHHHHHH | soluble |
| MISVFHYHQPKIGNSESEYEDAFSYDVEKGLFAMADGSSESVFSNEWARSLVDTFVAGKYDMKIDDMVETAVGMWRSKLPWNNMKWFVKNKIARGSMATFLGLEVLDGSFRSVAVGDTCLFIITPEGMKSFPVKYPSEFGNTPKLIWTGNPLLRTRRSIKWANYMEGRISESDLLIMATDSLAHWMLSRAKQRPWQILIDHSENEGEFIGSLINSGEMKNDDVTFAIISLK | not soluble |
| MAGRVHPRQLAFSLPHAESLSRDNFLEGPANAAGLALIDGWPEWPNRIMWLAGPEGSGKSHLAAIWAEEAGARSTTANALSAAGVPGALATGALVVEDLKAKDFDERALFHLMNLAREDGAYVLFTGRDVPAALDIELNDLRSRLRAVPVVMLLPPDDQLFRGLIVKFCADRQLTVDESVVSYLATRLERSSAAARQAVELLDSEALRLGRPVTRALAAELLRDALEHHHHHH | soluble |

Source: the DeepSol protein solubility set
